The text below walks through data of patent US20260028389A1 (BIOCRYST PHARMACEUTICALS, published 2026).

The labels stand for the following.
T1: rhKLK14 (human, UniProt Q9P0G3 25-251)
T1 sequence (looked up): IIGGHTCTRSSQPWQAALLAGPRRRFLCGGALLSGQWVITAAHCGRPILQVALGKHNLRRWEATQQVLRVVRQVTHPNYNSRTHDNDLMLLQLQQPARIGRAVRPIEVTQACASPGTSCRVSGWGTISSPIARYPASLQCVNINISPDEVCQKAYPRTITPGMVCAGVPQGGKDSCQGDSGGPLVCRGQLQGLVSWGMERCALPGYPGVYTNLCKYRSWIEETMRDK

B1: Spink9-112.K62G.Fc (SEQ ID NO: 56) (Fc fusion)
chain: IECAKQTKQMVDCSHYKKLPPEQELYCTREYDPICGSDGKTYGNDCFFCSKVKKTDGTLKFVHFGKCEPKSCDKTHTCPPCPAPEAAGGPSVFLFPPKPKDTLMISRTPEVTCVVVDVSHEDPEVKFNWYVDGVEVHNAKTKPREEQYNSTYRVVSVLTVLHQDWLNGKEYKCKVSNKALPAPIEKTISKAKGQPREPQVYTLPPSREEMTKNQVSLTCLVKGFYPSDIAVEWESNGQPENNYKTTPPVLDSDGSFFLYSKLTVDKSRWQQGNVFSCSVLHEALHSHYTQKSLSLSPGK
notes: Mutant SPINK9 domain fused directly to a C-terminal IgG Fc
B2: Spink9-183.Fc (SEQ ID NO: 57) (Fc fusion)
chain: B1 chain with E22Q, E24Q, L25A, E30D, G43K
notes: as for B1
B3: Spink9-30.Fc (SEQ ID NO: 55) (Fc fusion)
chain: B1 chain with E24V, L25S, Y26W, G43K
notes: as for B1
B4: Spink9-186.Fc (SEQ ID NO: 58) (Fc fusion)
chain: B1 chain with E22A, E24L, L25I, R29K, G43K
notes: as for B1
B5: Spink9-236.Fc (SEQ ID NO: 60) (Fc fusion)
chain: B1 chain with E24Q, Y26M, G43K
notes: as for B1
B6: SPINK9-112.2K62G.Fc (SEQ ID NO: 76) (Fc fusion)
chain: B1 chain with M104Y, S106T, T108E, L280M, S286N
notes: as for B1
B7: Spink9 WT (Fc fusion)
chain: IECAKQTKQMVDCSHYKKLPPGQQRFCHHMYDPICGSDGKTYKNDCFFCSKVKKTDGTLKFVHFGKC
notes: not shown: The C-terminal IgG Fc fragment of the wild-type fusion

Positions count from the first letter of the chain named. Names may count otherwise.

Sequence of rhKLK7 (P49862 30-253): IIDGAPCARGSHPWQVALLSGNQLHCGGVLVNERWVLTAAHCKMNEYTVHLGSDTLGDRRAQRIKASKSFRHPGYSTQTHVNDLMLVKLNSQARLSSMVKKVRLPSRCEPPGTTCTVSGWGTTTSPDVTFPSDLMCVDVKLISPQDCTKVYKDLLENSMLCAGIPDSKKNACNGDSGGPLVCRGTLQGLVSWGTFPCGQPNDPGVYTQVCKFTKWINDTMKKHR

One assay has as its target KLK5 (UniProt Q9Y337 67-293, limits assumed). As to the kind of experiment: cell-based or functional assay.
Wild Type Spink9 (SEQ ID NO: 2): the IC50 of KLK5 enzymatic activity, pH 5.5 was determined as 685 nM and the IC50 of KLK5 enzymatic activity, pH 7.5 amounted to 80 nM.

B1: the “KLK5 IC50 nM pH 5.5 (enzymatic activity)” value turned out to be 0.9 nM and the “KLK5 IC50 nM pH 7.5 (enzymatic activity)” value came to 1.1 nM.

Regarding B2, the “KLK5 IC50 nM pH 5.5 (enzymatic activity)” value is 3 nM and the “KLK5 IC50 nM pH 7.5 (enzymatic activity)” value was 1.4 nM.

B3: the “KLK5 IC50 nM pH 5.5 (enzymatic activity)” value came out at 2.4 nM and the “KLK5 IC50 nM pH 7.5 (enzymatic activity)” value came out at 2.2 nM.

Consider B4, for which the “KLK5 IC50 nM pH 5.5 (enzymatic activity)” value was 8.3 nM and the “KLK5 IC50 nM pH 7.5 (enzymatic activity)” value is 1.9 nM.

Consider B5, for which the “KLK5 IC50 nM pH 5.5 (enzymatic activity)” value stood at 3.5 nM and the “KLK5 IC50 nM pH 7.5 (enzymatic activity)” value came to 1.5 nM.

Another assay concerns the target rhKLK7 (human, UniProt P49862 30-253). As to the kind of experiment: cell-based or functional assay.
Take B1: the “KLK7 IC50 (nM) pH 7.5 (enzymatic activity)” value (“KLK7 IC50” below) worked out at 2.4 nM.

Consider B2, for which the “KLK7 IC50” value was determined as 5.4 nM.

In the case of B3, the “KLK7 IC50” value worked out at 10.8 nM.

As for B4, the “KLK7 IC50” value was determined as 8.3 nM.

For the molecule B5, the “KLK7 IC50” value was found to be 43.6 nM.

The next assay has as its target T1, rhKLK14. In words: cell-based or functional assay.
With B1, the “KLK14 IC50 (nM) pH 8.0 (enzymatic activity)” value was found to be 246 nM.

In the case of B2, the “KLK14, percent inhibition at 316 nM SPINK9 polypeptide, pH 8.0” value (shortened to “KLK14, percent inhibition”) amounted to 0%.

Take B3: the “KLK14, percent inhibition” value was 0%.

Regarding B4, the “KLK14, percent inhibition” value came out at 0%.

Consider B5, for which the “KLK14, percent inhibition” value was found to be 0%.

Another assay addresses T2, recombinant human KLK5 C-6His (Novoprotein, Catalog No. C415) (human, UniProt Q9Y337 23-293).
T2 construct: Bought protein; also called KLK5 protein (Novoprotein); not shown: C-terminal 6xHis tag ('C-6His')
In words: ELISA on captured KLK5 C-6His; binder incubated in human serum, day 0. (An ELISA detects its analyte on a solid surface through an enzyme-linked reagent.)
As for B1, the EC50 was determined as 0.1 nM.

B2: the EC50 worked out at 0.07 nM.

Take B3: the concentration giving a half-maximal response (EC50) was found to be 0.08 nM.

In the case of B4, the concentration for a half-maximal effect (EC50) turned out to be 0.09 nM.

On to B5, for which the concentration giving a half-maximal response (EC50) was found to be 0.05 nM.

Another assay deals with T2, recombinant human KLK5 C-6His …. As to the kind of experiment: ELISA on captured KLK5 C-6His; binder incubated in human serum, day 1.
With B1, the half-maximal effective concentration (EC50) worked out at 0.14 nM.

For B2, the 50% effective concentration (EC50) is 0.09 nM.

With B3, the concentration giving a half-maximal response (EC50) worked out at 0.1 nM.

As to B4, the EC50 was determined as 0.16 nM.

For B5, the concentration giving a half-maximal response (EC50) came to 0.08 nM.

A further assay has the same target. In words: ELISA on captured KLK5 C-6His; binder incubated in human serum, day 4.
Take B1: the EC50 amounted to 0.16 nM.

Regarding B2, the concentration for a half-maximal effect (EC50) was 0.12 nM.

For B3, the EC50 is 0.1 nM.

For the molecule B4, the concentration giving a half-maximal response (EC50) was 0.21 nM.

As to B5, the concentration for a half-maximal effect (EC50) turned out to be 0.12 nM.

Another assay has the same target. As to the kind of experiment: ELISA on captured KLK5 C-6His; binder incubated in human serum, day 7.
B1: the 50% effective concentration (EC50) is 0.17 nM.

Regarding B2, the EC50 was found to be 0.11 nM.

As for B3, the 50% effective concentration (EC50) was 0.1 nM.

In the case of B4, the EC50 turned out to be 0.12 nM.

With B5, the concentration giving a half-maximal response (EC50) amounted to 0.1 nM.

The target is the same in a further assay. In words: ELISA on captured KLK5 C-6His; binder incubated in human serum, day 14.
For B1, the concentration for a half-maximal effect (EC50) is 0.17 nM.

For the molecule B2, the EC50 is 0.1 nM.

Turning to B3, the 50% effective concentration (EC50) came to 0.13 nM.

In the case of B4, the 50% effective concentration (EC50) is 0.29 nM.

For B5, the EC50 worked out at 0.11 nM.

For the next assay the target is unchanged. In words: ELISA, KLK5 C-6His captured by anti-His mAb; binder incubated in human serum, day 0.
With B6, the EC50 is 0.06 nM.

The target is the same in another assay. In words: ELISA, KLK5 C-6His captured by anti-His mAb; binder incubated in human serum, day 1.
With B6, the EC50 was 0.059 nM.

For the next assay the target is unchanged. In words: ELISA, KLK5 C-6His captured by anti-His mAb; binder incubated in human serum, day 4.
B6: the EC50 was determined as 0.08 nM.

The next assay has the same target. In words: ELISA, KLK5 C-6His captured by anti-His mAb; binder incubated in human serum, day 7.
Take B6: the EC50 stood at 0.11 nM.

The next assay has the same target. In words: ELISA, KLK5 C-6His captured by anti-His mAb; binder incubated in human serum, day 14.
With B6, the 50% effective concentration (EC50) turned out to be 0.065 nM.

The target of the next assay is human FcRn (AcrobioSystems; Catalog No: FCM-H5286) (human) (UniProt P55899). As to the kind of experiment: SPR Biacore 8K, antibody coupled to CM5 chip, human FcRn as analyte, pH 6.0, steady state affinity fit.
Sequence of human FcRn (AcrobioSystems; Catalog No: FCM-H5286) (human) (P55899 24-297 limits assumed, chain 1 of 2): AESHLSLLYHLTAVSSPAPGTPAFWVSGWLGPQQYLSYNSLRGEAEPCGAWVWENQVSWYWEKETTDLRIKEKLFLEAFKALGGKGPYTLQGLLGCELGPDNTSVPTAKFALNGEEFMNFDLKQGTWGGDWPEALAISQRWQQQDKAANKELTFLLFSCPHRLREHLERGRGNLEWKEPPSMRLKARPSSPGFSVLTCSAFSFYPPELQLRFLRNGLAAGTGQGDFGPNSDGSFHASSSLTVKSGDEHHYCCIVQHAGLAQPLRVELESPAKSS
Sequence of human FcRn (AcrobioSystems; Catalog No: FCM-H5286) (human) (P61769 21-119 limits assumed, chain 2 of 2, further chain): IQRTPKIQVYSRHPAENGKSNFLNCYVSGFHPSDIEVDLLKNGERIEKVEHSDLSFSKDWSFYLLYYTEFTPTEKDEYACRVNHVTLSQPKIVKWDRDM
Turning to Rituximab (Roche) (antibody), the Kd turned out to be 3100 nM.

The target of a further assay is T3, human FcRn (AcrobioSystems; Catalog No: FCM-H5286) (human, UniProt P55899 24-297; P61769 21-119).
T3 construct: Bought protein
T3 sequence (P55899 24-297 limits assumed, chain 1 of 2): as the sequence (P55899 24-297 limits assumed, chain 1 of 2) above
T3 sequence (P61769 21-119 limits assumed, chain 2 of 2): as the sequence (P61769 21-119 limits assumed, chain 2 of 2, further chain) above
In words: SPR Biacore 8K, polypeptide coupled to CM5 chip, human FcRn as analyte, pH 6.0, steady state affinity fit. (In general: Surface plasmon resonance follows binding to a sensor surface in real time, without labels.)
B1 registered an equilibrium dissociation constant (Kd) of 233 nM.

In the case of B2, the equilibrium dissociation constant (Kd) is 222 nM.

As to B3, binding was put at a Kd of 229 nM.

B4 had a Kd of 232 nM.

As for B5, the Kd was determined as 231 nM.

Molecule B6 showed a dissociation constant Kd of 189 nM.

Another assay has as its target T2, recombinant human KLK5 C-6His …. In words: SPR Biacore T200, polypeptide captured by anti-human IgG Fc, KLK5 as analyte, pH 7.4, steady state affinity fit.
In the case of B7, the dissociation constant (Kd) was determined as 99 nM.

Regarding B2, the dissociation constant (Kd) is 0.0216 nM.

Consider B3, for which the dissociation constant Kd came out at 0.0909 nM.

As for B4, the equilibrium dissociation constant (Kd) turned out to be 0.0189 nM.

B5: the equilibrium dissociation constant (Kd) turned out to be 0.0291 nM.

By EC50 is commonly meant the concentration that produces a half-maximal response. A word on the Kd: it is the free concentration of one partner at which half of the binding sites on the other are occupied at equilibrium, for simple one-to-one binding.
